# Source: patent publication US9528993B2, “Agents and methods related to screening for resistance to DR5 and reducing resistance to DR5 agonists” (The UAB Research Foundation, priority 2005, dated 2016)
# B1: DDX3ΔCARD: dominant negative mutant DDX3 lacking aa 1-150 (CARD-truncated DDX3) (protein)
# chain: FSGGNTGINFEKYDDIPVEATGNNCPPHIESFSDVEMGEIIMGNIELTRYTRPTPVQKHAIPIIKEKRDLMACAQTGSGKTAAFLLPILSQIYSDGPGEALRAMKENGRYGRRKQYPISLVLAPTRELAVQIYEEARKFSYRSRVRPCVVYGGADIGQQIRDLERGCHLLVATPGRLVDMMERGKIGLDFCKYLVLDEADRMLDMGFEPQIRRIVEQDTMPPKGVRHTMMFSATFPKEIQMLARDFLDEYIFLAVGRVGSTSENITQKVVWVEESDKRSFLLDLLNATGKDSLTLVFVETKKGADSLEDFLYHEGYACTSIHGDRSQRDREEALHQFRSGKSPILVATAVAARGLDISNVKHVINFDLPSDIEEYVHRIGRTGRVGNLGLATSFFNERNINITKDLLDLLVEAKQEVPSWLENMAYEHHYKGSSRGRSKSSRFSGGFGARDYRQSSGASSSSFSSSRASSSRSGGGGHGSSRGFGGGGYGGFYNSDGYGGNYNSQGVDWWGN
# Tests used:
# [1] = tested on: TRA-8-resistant tumor cells; assay: ATPLITE assay of TRA-8-resistant tumor cells transfected with DDX3ΔCARD; format: cell-based; conditions: four lines, adenoviral vector, 500 ng/ml TRA-8 overnight
# Experimental: Cytotoxicity analysis of tumor cell susceptibility to TRA-8, 2E12, and TRAIL-mediated apoptosis. Cells (1,000 cells per well) were seeded into 96-well plates in triplicate with eight concentrations (double serial dilutions from 1000 ng/ml) of TRA-8, 2E12, or TRAIL. Cell viability was determined after overnight culture using an ATPLITE™ assay according to the manufacturer's instructions (Packard Instruments, Meriden, Conn.). The results are presented as the precentage of viable cells in treated wells compared to medium control wells.
# cIAP1 = molecular target: T1, cIAP1 (Homo sapiens, UniProt Q13490); assay: Co-immunoprecipitation of DDX3 mutant with cIAP1; format: binding
# T1 construct: endogenous in cells
# T1 sequence (Q13490 whole entry): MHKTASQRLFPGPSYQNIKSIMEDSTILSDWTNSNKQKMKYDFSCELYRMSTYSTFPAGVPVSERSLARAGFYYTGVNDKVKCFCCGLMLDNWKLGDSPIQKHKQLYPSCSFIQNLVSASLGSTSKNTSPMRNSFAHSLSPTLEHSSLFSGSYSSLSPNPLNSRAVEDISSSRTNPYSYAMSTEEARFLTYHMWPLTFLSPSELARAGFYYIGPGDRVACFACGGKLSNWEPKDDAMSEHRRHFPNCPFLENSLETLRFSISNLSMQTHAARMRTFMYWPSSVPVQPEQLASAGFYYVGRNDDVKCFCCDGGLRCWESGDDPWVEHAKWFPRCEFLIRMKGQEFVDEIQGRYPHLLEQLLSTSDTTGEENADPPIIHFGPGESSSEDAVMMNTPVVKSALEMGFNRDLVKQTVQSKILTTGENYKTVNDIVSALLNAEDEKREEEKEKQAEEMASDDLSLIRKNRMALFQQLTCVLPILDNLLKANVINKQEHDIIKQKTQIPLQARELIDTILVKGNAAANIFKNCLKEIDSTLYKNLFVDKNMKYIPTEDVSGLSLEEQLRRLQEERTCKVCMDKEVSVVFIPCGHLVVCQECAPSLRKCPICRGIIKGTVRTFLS
# Experimental: Anti-DDX3 or anti-TRAIL-R2 antibody was conjugated to Sepharose beads (Sigma). The composition of the TRAIL-R2 DISC was determined as follows. 5×10^6 cells (if not otherwise indicated) were treated with 500 ng/ml of TRA-8 for the indicated time at 37° C. and then lysed in immunoprecipitation-lysis buffer (20 mM Tris-HCl, pH 7.4, 150 mM NaCl, 0.2% NONIDET P40, and 10% glycerol and complete protease inhibitor cock-tail) or lysed without treatment (unstimulated condition). […] After immunoprecipitation, the beads were washed four times with lysis buffer. The beads were then washed five times with 10 mM Tris buffer and resuspended in loading buffer for SDS-PAGE and immunoblotting analyses.
molecule,measurement,setting,value
B1,susceptibility to TRA-8-induced apoptosis,[1],regained their susceptibility to TRA-8-induced apoptosis
same,interaction with cIAP1,cIAP1,fails to interact with cIAP1
